Experimental data as given in IntAct's records for PubMed 12093730.

B1: Guanine nucleotide exchange factor SopE (Salmonella typhimurium), O52623 (parent)
chain: MTKITLSPQNFRIQKQETTLLKEKSTEKNSLAKSILAVKNHFIELRSKLSERFISHKNTESSATHFHRGSASEGRAVLTNKVVKDFMLQTLNDIDIRGSASKDPAYASQTREAILSAVYSKNKDQCCNLLISKGINIAPFLQEIGEAAKNAGLPGTTKNDVFTPSGAGANPFITPLISSANSKYPRMFINQHQQASFKIYAEKIIMTEVAPLFNECAMPTPQQFQLILENIANKYIQNTP

Variants of: B1
Conditions: with cdc42_human CDC42, P60953
cdc42_human CDC42, P60953, sequence (P60953 whole entry, looked up): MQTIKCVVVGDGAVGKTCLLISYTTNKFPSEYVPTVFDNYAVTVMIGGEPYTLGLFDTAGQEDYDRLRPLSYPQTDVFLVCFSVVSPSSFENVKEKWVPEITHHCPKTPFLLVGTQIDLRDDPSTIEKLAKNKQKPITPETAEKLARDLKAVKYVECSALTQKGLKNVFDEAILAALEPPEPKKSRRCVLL

| Variant | effect of a mutation on the interaction |
| --- | --- |
| MTKITLSPQNFRIQKQETTLLKEKSTEKNSLAKSILAVKNHFIELRSKLSERFISHKNTESSATHFHRGSASEGRAVLTNKVVKDFMLQTLNDIDIRGSASKDPAYASQTREAILSAVYSKNKDQCCNLLISKGINIAPFLQEIGEAAKNAGLPGTTKNDVFTPSGAAANPFITPLISSANSKYPRMFINQHQQASFKIYAEKIIMTEVAPLFNECAMPTPQQFQLILENIANKYIQNTP [G168A] | decreasing interaction |
